The target of data set [1] is M. tb ICD-2 (Mycobacterium tuberculosis, UniProt O53611). Nature of the data set: biochemical.
Data set [2] relates to NC(=O)c1ccc[n+]([C@@H]2O[C@H](COP(=O)(O)OP(=O)(O)OC[C@H]3O[C@@H](n4cnc5c(N)ncnc54)[C@H](OP(=O)(O)O)[C@@H]3O)[C@@H](O)[C@H]2O)c1. Briefly: purified protein. The following applies: pH 7.5; 25.0 °C; varied: cofactor.
In data set [3] the test system is O=C(O)CC(C(=O)O)C(O)C(=O)O. Briefly: purified protein. Conditions: pH 7.5; 25.0 °C.

Chain of M. tb ICD-2 (O53611 whole entry): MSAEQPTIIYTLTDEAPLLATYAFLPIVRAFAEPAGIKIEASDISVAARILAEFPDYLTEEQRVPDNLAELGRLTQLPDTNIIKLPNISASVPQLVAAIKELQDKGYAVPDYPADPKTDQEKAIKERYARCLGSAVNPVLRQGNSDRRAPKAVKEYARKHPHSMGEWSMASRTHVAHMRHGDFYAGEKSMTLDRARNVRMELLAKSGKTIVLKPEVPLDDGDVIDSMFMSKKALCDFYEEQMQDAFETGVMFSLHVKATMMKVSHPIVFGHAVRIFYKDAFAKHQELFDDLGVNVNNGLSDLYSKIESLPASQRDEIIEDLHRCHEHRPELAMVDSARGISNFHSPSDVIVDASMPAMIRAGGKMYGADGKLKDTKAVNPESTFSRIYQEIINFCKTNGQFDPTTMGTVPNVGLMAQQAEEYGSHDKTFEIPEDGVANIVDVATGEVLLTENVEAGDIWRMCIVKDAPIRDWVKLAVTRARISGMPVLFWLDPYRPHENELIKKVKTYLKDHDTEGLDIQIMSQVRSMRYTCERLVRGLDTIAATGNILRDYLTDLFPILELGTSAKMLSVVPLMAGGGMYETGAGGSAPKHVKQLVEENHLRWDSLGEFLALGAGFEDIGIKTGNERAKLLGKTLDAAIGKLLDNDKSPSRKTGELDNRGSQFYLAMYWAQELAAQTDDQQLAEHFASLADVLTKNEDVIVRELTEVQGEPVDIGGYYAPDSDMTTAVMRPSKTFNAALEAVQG

The term Ki denotes the equilibrium dissociation constant of an inhibitor or competing ligand from its target. Low readings indicate tighter binding, high ones weaker binding. For `NC(=O)C1=CN([C@@H]2O[C@H](COP(=O)(O)OP(=O)(O)OC[C@H]3O[C@@H](n4cnc5c(N)ncnc54)[C@H](OP(=O)(O)O)[C@@H]3O)[C@@H](O)[C@H]2O)C=CC1` [NADPH], the affinity in data set [1] corresponds to a Ki of 4.6 µM.

As a reminder, the Km is the concentration of substrate that gives half-maximal velocity. Regarding “M. tb ICD-1 (Mycobacterium tuberculosis H37Rv)”, the Km in data set [2] was 125 ± 5 µM; in data set [3], 10 ± 5 µM. Further, the values for the Vmax in data set [2] and in data set [3] were 400 μM NADPH/min and 380 μM NADPH/min, respectively.

(Values after paper PMC1260013 (BMC Biochemistry, 2005).)
